Assay results from US20220010003A1 (Boehringer Ingelheim, published 2022).

Key:
[1] = biological target: T1, recombinant cyno periostin (cyno, UniProt F6ZVK0 47-861 (rhesus entry)); experiment: BLI (Octet Red), NB0828 captured on anti-human Fc (AHC) biosensors, periostin titrated from 100 nM
T1 construct: also called CynoPOSTN
T1 sequence: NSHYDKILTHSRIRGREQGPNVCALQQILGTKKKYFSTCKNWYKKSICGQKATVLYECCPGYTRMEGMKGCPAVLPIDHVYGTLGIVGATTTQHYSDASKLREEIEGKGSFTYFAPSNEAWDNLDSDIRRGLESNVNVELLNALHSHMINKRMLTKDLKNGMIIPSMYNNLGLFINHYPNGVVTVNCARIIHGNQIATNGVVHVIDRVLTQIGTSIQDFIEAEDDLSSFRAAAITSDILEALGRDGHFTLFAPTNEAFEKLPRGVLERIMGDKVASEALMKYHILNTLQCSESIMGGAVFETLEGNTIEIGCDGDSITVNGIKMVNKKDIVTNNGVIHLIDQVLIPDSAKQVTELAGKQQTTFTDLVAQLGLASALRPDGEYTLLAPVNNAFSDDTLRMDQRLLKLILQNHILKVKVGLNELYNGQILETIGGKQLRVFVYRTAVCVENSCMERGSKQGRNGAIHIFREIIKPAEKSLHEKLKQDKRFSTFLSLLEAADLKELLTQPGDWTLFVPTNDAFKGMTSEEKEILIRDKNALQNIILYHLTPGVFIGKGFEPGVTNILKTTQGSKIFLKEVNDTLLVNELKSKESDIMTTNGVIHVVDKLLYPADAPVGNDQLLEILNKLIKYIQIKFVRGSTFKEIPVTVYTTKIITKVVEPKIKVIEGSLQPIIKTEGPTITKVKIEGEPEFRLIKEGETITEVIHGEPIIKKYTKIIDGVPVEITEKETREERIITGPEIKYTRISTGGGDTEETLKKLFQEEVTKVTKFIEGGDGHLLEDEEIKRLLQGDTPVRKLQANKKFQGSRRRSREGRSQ
Protocol: (§1) NB0828's binding affinity was determined across human, mouse, rat, and cyno species. NB0828 affinities were determined using the octet red system. Briefly, anti-human Fc (AHC) biosensors were used to capture NB0828, followed by association of titrating amounts of either recombinant human, mouse, rat, or cyno periostin (100 nM→0 nM; 1:2 dilutions). Recombinant human, mouse, and rat periostin was purchased commercially from R&D systems, whereas cyno periostin was made internally.

[2] = biological target: T2, recombinant mouse periostin (mouse, UniProt Q62009-2 24-811, limits assumed); experiment: as above
T2 construct: also called MoPOSTN
T2 sequence (looked up): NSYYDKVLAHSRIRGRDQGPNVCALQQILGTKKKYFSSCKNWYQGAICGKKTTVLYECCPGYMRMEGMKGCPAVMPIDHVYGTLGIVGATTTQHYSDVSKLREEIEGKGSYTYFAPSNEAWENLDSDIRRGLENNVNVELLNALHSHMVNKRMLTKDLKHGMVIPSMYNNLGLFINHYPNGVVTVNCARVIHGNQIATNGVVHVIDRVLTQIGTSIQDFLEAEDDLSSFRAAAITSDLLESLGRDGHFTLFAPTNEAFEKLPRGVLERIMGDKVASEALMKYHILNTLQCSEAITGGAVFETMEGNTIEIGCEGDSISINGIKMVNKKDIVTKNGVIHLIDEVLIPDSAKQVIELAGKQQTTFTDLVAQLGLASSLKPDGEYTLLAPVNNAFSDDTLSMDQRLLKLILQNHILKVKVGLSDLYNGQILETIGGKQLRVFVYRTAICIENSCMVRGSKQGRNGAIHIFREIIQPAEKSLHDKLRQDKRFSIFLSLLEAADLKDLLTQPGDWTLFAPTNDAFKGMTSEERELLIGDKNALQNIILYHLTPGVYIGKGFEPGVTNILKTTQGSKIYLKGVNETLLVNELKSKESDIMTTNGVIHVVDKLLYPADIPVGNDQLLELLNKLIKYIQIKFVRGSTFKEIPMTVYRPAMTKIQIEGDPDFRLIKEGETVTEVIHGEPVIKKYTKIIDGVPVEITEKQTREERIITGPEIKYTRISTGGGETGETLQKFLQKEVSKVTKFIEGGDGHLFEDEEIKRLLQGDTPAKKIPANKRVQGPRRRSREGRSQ
Protocol: as §1

[3] = biological target: T3, recombinant human periostin (human, UniProt Q15063 22-836); experiment: as above
T3 construct: also called HuPOSTN; POSTN
T3 sequence: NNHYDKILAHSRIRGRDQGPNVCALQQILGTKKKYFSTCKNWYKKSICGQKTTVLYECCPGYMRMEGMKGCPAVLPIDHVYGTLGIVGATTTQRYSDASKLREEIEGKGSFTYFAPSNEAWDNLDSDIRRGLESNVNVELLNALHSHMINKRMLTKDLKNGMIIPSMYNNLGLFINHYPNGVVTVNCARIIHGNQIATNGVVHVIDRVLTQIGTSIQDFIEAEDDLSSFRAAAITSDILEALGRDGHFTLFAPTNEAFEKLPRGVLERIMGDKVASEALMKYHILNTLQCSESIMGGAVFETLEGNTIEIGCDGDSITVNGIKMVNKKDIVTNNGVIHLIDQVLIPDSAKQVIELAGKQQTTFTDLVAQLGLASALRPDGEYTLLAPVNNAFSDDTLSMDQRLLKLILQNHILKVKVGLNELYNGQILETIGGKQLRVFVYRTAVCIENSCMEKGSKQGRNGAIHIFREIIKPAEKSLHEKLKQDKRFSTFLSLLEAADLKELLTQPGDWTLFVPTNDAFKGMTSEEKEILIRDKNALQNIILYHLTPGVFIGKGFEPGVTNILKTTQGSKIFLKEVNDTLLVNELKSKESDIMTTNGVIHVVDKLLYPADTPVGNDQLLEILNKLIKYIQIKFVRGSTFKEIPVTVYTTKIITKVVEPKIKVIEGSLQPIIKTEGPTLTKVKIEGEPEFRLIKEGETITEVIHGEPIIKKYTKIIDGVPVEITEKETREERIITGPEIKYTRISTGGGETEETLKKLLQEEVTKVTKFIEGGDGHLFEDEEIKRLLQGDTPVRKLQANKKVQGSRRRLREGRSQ
Protocol: as §1

[4] = biological target: T4, recombinant rat periostin (rat, UniProt A0A8I6AHK0 24-838); experiment: as above
T4 construct: also called RatPOSTN
Protocol: as §1

[5] = biological target: T3, recombinant human periostin; experiment: binding ELISA, periostin coated

Kd [1]: 0.265 nM
koff [1]: 0.000211 s⁻¹
kon [1]: 794000 M⁻¹ s⁻¹
Kd [2]: 0.114 nM
koff [2]: 7.64e-05 s⁻¹
kon [2]: 670000 M⁻¹ s⁻¹
Kd [3]: 0.351 nM
koff [3]: 0.000246 s⁻¹
kon [3]: 702000 M⁻¹ s⁻¹
Kd [4]: 0.54 nM
koff [4]: 0.000393 s⁻¹
kon [4]: 727000 M⁻¹ s⁻¹
EC50 [5]: 0.12 nM
B1: NB0828 (antibody, V domains shown)
VH: QVQLVQSGAEVKKPGASVKVSCKASGYTFTSYGISWVRQAPGQGLEWMGWISAYNGNTNYAQKLQGRVTMTTDTSTSTAYMELRSLRSDDTAVYYCARDMLVVPFDYWGQGTLVTVSS
VL: QSVLTQSSSASGTPGQTVTVSCSGSSSDIGSNRVNWYQQLPGTAPKLLIYSNDQRPSGVPDRFSGSKSGTSASLAISGLQSADEADYYCAAWDDSLSTYVFGSGTKVTVL
